Measurements taken from the DeepSol protein solubility set.

Test: soluble on expression in E. coli; label from the status in PepcDB or PDB records

Sequence	soluble on expression in E. coli
GPGSMKLRCFLLRYYPPGITLEYETSAGQVGQKTIGLLSLTPTTPLEPLVDKIIAEEPLLNGKYHDQIVTYLQRLVEKLIAGNNPNQTFTLFKSLRAHMLPLTNCAFNKNGTKFVTGSYDRTCKVWETATGNELVSLEGHRNVVYCVGFNNPYGNRVATGSFDKTCKIWDGESGQCLHTLTGHVTEIVCMSFNPQSTLIGTGSMDNTAKVWDVETGQELHTLMDHTAEIVALNFNTYGDLIVTGSFDHTAKLWDVRTGTVVHTLREHRGEISSVQFNYASNLVVTGSIDRTCKLWDVASGRCVSTLRGHTDEVLDVAFSVSGNMVASASADTTARVYNTATCHCIASLNDHEGEISKLEFNPQGTKIITASGDKRCNLWSVETGQVLQSLVGHTDEIFSCSFNYEGDTILTGSKDNTCRIWKS	not soluble
GPGSMKRFGIWTRPSLGRRSFYAGLDDSRVMRLRRSNTTLNKPRGRDAFSLAFEKRIHLLPLTQVGDLYGLPVPPSAPGESSGGAAEETIRVLVVDLLLLEDVESLISFPASNPLYYEDWPTVSDNSEGEVPSDRRSGISSSLALGESGFSLPSSNKRHLRQYGDTTLLRNSFVREAAHGVSAQFHTAICINPFIDVDRFRREEAQVEMISAYRNILYEAAEVPDGRADVIRIPALCCDTCGPRFYHEIGKLNQQSLIKGFHRIGSEAKETLMLNPKFIVEVYVPLPFLQQFQRAFLEDAWETPESTLNPGRTALYPGLAPPRSLLPLEGWIGKRPELVEAIETEGRSLMSGVKYSLDGKPIEEREVLAELRVFGREKEQEEMLKREEETATQQGLEVAPNGNTVAPLRAGIDQN	not soluble
GPGSMKSPHMARIGNSVYRDICPEDDPLCSNFGFEDYDLSRPTPMMRMSLLYNLHVSGESPSPAIDNMFRLAYRSRHGLVKIYKVMNVSAESKAWVADPKNRKCDAPGSWLCTGQYPPAKEIQEMLARRIDYGQLEDFNRGKRDDAYYRAYMRRIRNQGRG	soluble
GPGSMLAASRLARGVAETVTRENFTISRLTNGLRVITCEDGNGITGMGLFSLNGPKFEEEGSFGAAAVMESLPLRSNTRMTTETISQSLGVFGNAYKVTNNREAMSVMLMMPRYHRKEGLDVLNGMWLHPTDNDEEFAVAKAQTLHRSSLMSRDATSMLFELVHKAGWSGRGLGNPLSPTEQQLEQLTLERFHAFHRRYTTPERTVLAATGVADHKTFVQEAEVRLQFPQATAPSLHSSSAETANKAAAATAQLHPYTGGCEYVQNTMAPESMNKFQEKNLSHIALFFQAIPMAHPDYFTFSVIQTLLGGGTSFSSGGPGKGMQTKLFREVLNREPNVHGMECITAWYSDGGLIGLYGSAPHEHVNNLLKIIIFQAASISQRVTPVHVEMAKNQLSSQLILLGEGREQLLNDMGFNLLVHNYTITPQETIQGSAQVTMARLHEVCAQLIEHPITFAVYGETKGMPEYRELVQALKKSYASLSKSTPA	not soluble
GPGSMLASSSLVSVKRTLRIKVGTSTSERLRAAELDEPTTSSARPPPSAMDLSYITGKMPDTLPAYQTERAVWSATTFRSAWNKLHKAYASFLETDPERAAELRAKDWQGLALYNSYAETLHLMSLLPATLRTAITQHSSFDYTEVEELFVHLGQDVEVRGSGGWVIQLPPPTTADLQYLVKHIGRFGADGRGCVANTAHRASVWRGRHGEALGVTLRVGRYVPGAARALLPLAQRGSLLILSKAGMGKTTLLRDLAAALAQEPGTPRVTVVDTSNEIGGDGPIPLPYLGRCRRIQVAQRQDQGRVMMEVIQNHTPEYLIVDEIATEEEAEAAWSISQRGVHLIGTCHGEHLEGLLQNRALNLLVGGAAQAFLSNEERRLRNKMKKTVLERPYSSPFSFVVELHARNLGHLYVDVNKAVDLVLDEQPAQLNGAVGAAVELSALLPSRVEKLLRLHDERKRKLKYVAGTGTNDAEVGEEDDETATFSSAARGTVDEDGYTLLADDGGDPESKRSIAPSTYAAPNHASGRRPHWQAEKQRRHRKTDDELYGELKGSF	not soluble
GPGSMLLSVPEAHTEVITSLQFSPHHASVLCSTSGDDTAALWDLRNPSDSCNIARLTHHREPVNHALFIEESEPCLLTASDDRTIAYWDVREISQPVAVIRGFGDGINKMLRLPVSRRSGNACVNGGACCLIVSACDDGAVYIHDVALCGDTRRQSGMPVEGAGDTFSSTGNLVDRFMASTSTVNDLVLSPNPNLLLTASEDCAIRLWDIGPIFGGQRTQDERLVTSFDEFENPVNHIAVINSPRVTQFVQDEGQGGHSGCWLYAACSEFIFAVDLDPVSGALGEGARTLTGHQDYVRGLEFVGDDTLLTVSDDSTVIEWSLRTSNPVRQVKLHEGLVMASAVSAARDVLATGTDGGEMRVWRLPFLTE	not soluble
GPGSMNGEFPVLVSHHKLLMLPTVGVARYDSGNAGIIGEQTHNFHVIPEIELIVVRVHGKMTEYQHNHLLLTSVLQLHAKPLHLFLTNASINIQHIFAMTITMLHAIRFCPSGSTGPCCKHRQIRPIEHNEKEHAALTYLKTIVTGWHPQQTINMIMVLFAQPQEIVVPQ	not soluble
GPGSMNQLVVFLDIDNTLYSGEEYHSLAEQIRDGLVEYVGNWLQLTPQESEAYVVHCFEKYGLTIAGLMHEQKGFDAEAATDFLYSHCDFSHLQENPRLREMLSRLRRNHHLYFFTNASRRHATTVLQALGLSSDEFRMSGFTYEDQWAQTAPVPCNKPMRNAYIAVIKVLKKWLQDAEWVTAECMVMVDDSACNLIEPLALGLNAVWVSHGHPISDVLAEKMNTGRLFCITDIIELEDIIKQITINREN	soluble
GPGSMPAIVKQLPSSDDDNDQASLSPAKQYAQLGEESSPAGASRAELSNAEAGAEAEGLAQPQKTDASGAERVVDVEECSRLKAAGNELFKDGNISEALTLYRKALWCAPLKPVRPHHPATGESSGLPTPPNGSAPAASSHTATQRDETEVEQQPEDKTDYTLTAQVYCNAGFCLMKLDVKEEAAHMLSEAIRHDDSYLKAYIRRADCYYMMQKWSSAYGDYESYEKLGGVLDAQGCTRKAASKAKVDEEMQKMLGELKSLGNKILGNFGLSTDNFKFDKDPNTGGYSMRFER	soluble
GPGSMPERCIGITTVQVGHIVGRGGSTLKGIQERTGATLCIVENGLQVKITADDAAKVAAAEAEVHKIVASQQNPDYEGPCGARLRKEAVELGQKRSKLFEEATRMREAGDHEGANKLVAMAKKAGEDMKARHREAALAIAKHNNEEKGKGPNYFDMHGLHLEEAMEMLKVRMSKLEEKPVGSTTAFEVIPGAGHHSAPGTQKLKRATLEYVQWKGYPCEEVNAGAFLVKVPGLGEGVLSKPEDGDKVPTKPKESATGVANKPKASGSAAASKSKAQSCCACM	soluble
GPGSMPKSKRATIVPLTKTRSKTREEKDELINKIRDALDDYTDVYTFELSNIRTNILQQIREERRNDSRLFLGNNKLLMIALGRDDSSSQRPNLHKLSKYLTGSCGLLFTNLPHQDVKEYFKGVSADVFARTGQVATCPLLLRTGPLAQFPHSMFDHLSRLGLPIKLDKGVIVLLRDTTVCEVGDTLTAEAAQLLKLFGIQSAEFKLELTAHWAKGVVKRMSKKKKEEEN	soluble
GPGSMPSITQETLRRRAEFVRTGGRGSVRRTVKVAHRNTGDDKKVQQVLKRLNVSPFNDVDDAVLYRHDGTAYYFEKPKVQASMQSQCFVVSGAYDVKEASEVPS	not soluble
GPGSMPSSSLSQSSAPRQPPLGDSGECRCSTLPPKPPLAGVEEPQPSDAEDPIPFLATMSMNQVGFLHARKCTRRDLLGTSLGNCPASENVLANGASHGIEATPLPGSRSATSTSFTSPTSAPLAPMAESECDVSYLEQMLMQIMDAAKAFANTSQAPSCDTAPQSADTLPACEYLLRKCFHFDTGAFKPRQQEVCLSVLAGVNTLAVCPTGWGKSLCFQFPMLVHRLLFQCRYTRWCRQAATAPAAAQQSSETAVKEGQTGASRFAGALPSAGLPAHLFSRFCVVVSPLLALMEDQAEKINAVDHLSAFVLSAKVGADREARVLAQLESPVCPLDILFVSPEN	not soluble
GPGSMQAIITTAKSFAGDEKRPRDVKAAAAAPVLDWATMYTRRPAGTSTLFTLEAMVAKRMELLAWIDQLMNSPNVRSFSVVLDEIGARLPIERRKHVTQHAADHVVVLGRDDSPAADDADSFRTPRLSVSRSSGSAALNAFVFEGDEDLISHLLARFAFCMSEQWRKWFVKTEEALLRARLKLQMAKYETDFLPSLMRDNGLPCDPLSDEQWQDPLLQEYIVYFAVFQGKQQSRSREDYFSVPMTLATRLIKTRSVLCLKGHAILHRDQAQEVFVTVFRSKLNKGLHEAYLARMRLTSNEEDEERETVMRMLDAFLEYFVSDPTSAIQEAASGAVSAGEVRRIAQTHFPLCMRQVDEHLRREGHLKHHGRFTYGLFLKAIGLSLQDSMTLFSSLMTVKGVAGNSEAFAKTAYGYNIRHNYGMEGKKTSYSSMSCATLLALPPVVDRFDCHGCPFRFKDEGAFRSMLLKEQLNPLGKEHPPLRPSASDIEEIVQDCKGQHYTRACYKYFVATHPGVKRDTLFRSPFEYYTLSREVGERPEEILSEQTTPARRLMTGDSLKRSMFTPTLKEDVIRERKSPP	not soluble
GPGSMQLDDWDTYRETLLYARELAVLLPSSWSELSSEQSATKSSSSLSHSSSLPSLAFVKRVEAPLLTQWMTAAAAAPVTCHCSSVGDSVEDMDYATAVVAARWTRMLGMWIVLRVELLCNTSGGVLTLAEEYEVGRYRQYFVPLAWPMLDRSIRERLAARLCALADKRRVSQPMGGTSCANDMAASSFCGTLLGKDEEDEQACDEVCTRAMEATQRVAREQLRISWDALHPSSIPATVGAKLKRLSAQQSRRHESETGSLPRPVVVHTNCLGGLLHALTSFRLRPQRQHADHGSAPLLTLTQNALLHIGYDLLTKVRSSVIERCYYLIPALLDYESCLLFCEAMLKESAALQAHEKELTRTQSILRLTLQSLLQSALGMYRHVIEALLVDYKKSACKSSASSTPRLVKVSAHLLPANPLVAQEAAQKQHASDAVVPSKPPTHPGAADGCSASAVMRLSEPAFSILVEVLEPTCDLLQRYPADWNVLWTRSLTGPDGRDQGATSGSHIAREGGLLSPSSRRQRLVSQQRQRSIAMDVRREVVSFLDAEVSNCFAAAAAGSGAASKKAQQQAAADAYLTATYLSAYGPHWL	not soluble
GPGSMQTSQSLHTAPAEKEVEAPPQLPLTDGRCYACRRCRRILSEVQWYATGCVECSATMGVPDRDSLLDFATPHFHNFIGLIAPGQSWVARLIMKSREPTNGIFAETLSDDEPEDEENEIEPYVGDADEEEGPALLDGEDGAAEPVHELAAEAPE	soluble
GPGSMRCVRSAAVLVKFGRSFDSTTRFGKELGFSHKMRDIPVLTGNPRPVAREEEWSCRYKLTDRMEDVVMDILKKEGWCEAEVQREMSEIFERKTQGCRSSLNTWTTVEEFQRTPWYRRYKPTDTCVAKYISYEVVKLLEEALIPPSLRGDPYAHLRKRHMEDNWMNDRFSEEAAKYIQREDLNKHTKGLPQYGQITRRKFLEFDRQFKESYGGKQHVNEAYSAWLQSIGKG	not soluble
